Assay: yeast display, Sf9 membrane polyspecificity reagent, FACS + sequencing; frameworks hold sequencing errors
How it was run: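 In a synthetic yeast display library (Saccharomyces cerevisiae BJ5465), nanobody expression was induced with galactose for 36–48 hours. FACS gates were set low and high (top ~1%) using anti-HA fluorescence for expression and streptavidin fluorescence for binding of the Sf9 membrane reagent. Each polyreactivity label is drawn from the gate of origin.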

| Sequence | polyreactivity (PSR sort gate) |
| --- | --- |
| EEELVESGGGLVQAGGSLRLSCAASGSTFLVYAMGWYRQAPGKERELVAVITYSTVRTYYADSVKGRFTISRDNAKNTVYLQMNSLKPEDTAVYYCNADIEFAVLGQGMDYWGQGTQVTVSS | low polyreactivity |
| EVQLVESGAGLLQAGGSLRISCAASGITLAYYAMGGYRQAPGTERELVAVINIGVSTDYADSVKGRFTISRDNAKNTVYVQMTSLKPEDTAVYYSAAGWGRRWPQYNYWGQGTQVTVSS | high polyreactivity |
| EVQLVESGGGLVQAGGSLRLSCAASGRTFIWNAMGWYRQAPGKERELVAAITRNGDSTYYADSVKGRFTISRDNAKNTVYLQMNSLKPEDTAVYYCAAYSRVFVYRTVGNYGWMNYWGQGTQVTVSS | high polyreactivity |
| EVQLVETGGGLVQAGGSLRLSCAPSGFNFGVYAMGCYRQEPGKERELFAAISTTVGSTYYADSVKWRFTISRDNEKNTVYLQMTSLKPEDTAVYYCATGWSNCGQGTQVTVSS | low polyreactivity |
| HAQLQDSGGGLVQAGGSLRLSCAASGNISSEYYMGWGRQAPGSGREFVAAIDYGGTTNYADNVKGRFTISRDNAKNTVYLQMNSLRPEDTAVYYCAASCDTIGLFAYWGQGTQVTVIS | high polyreactivity |
| HAQQQESGGGLVQAGGSLRRSCAASGSIFRFSGRGWYRLAPGKERELVASIGFGSITYYADRVKGRFTISRDNANNTVYLQMNSLKPEDTAVYYCAVQVQDESWLDYWGQGTQVTVSC | low polyreactivity |
| HDQHVESGGGLVQAGGSLRLSCAASGRIYGSTMGWYRQAPGKERELVAAITRNGGSTYYADSVKGRFTISRDNSKNTVYLQMNSVKPEDTEVYYCAARNAFGTYYYWGQGTQVNVSS | high polyreactivity |
| HDQLVESGGGLVQAGGSLRLSCAASGFTFYRNAMGWYRQAPGQERELVAAITRGGSTTYADSVKGRFTISRANAKNTVYLQMISLKPDDTAVYYSAKVARADVPGYYKYYYWGQGTQVTVSS | high polyreactivity |
| HVKLVESGGGLVQAGGSLRLSCAASGSIFEPYVMGWYRQAPGKERELVAAIRQTRGSTYYADSVKGRFTISRDNAKNTVYLQMNSLKPEDTAVYYCNAEQNPSGLYDYRGVEGEMGYWGQGTQVTVSS | low polyreactivity |
| HVQHVESGGGLVQAGGSLRLSCAASGFTFFYYTMGWYRQAPGKERELVAAISKGGGSTFYADSVKGRFTISRDNAKNTVYLQMNSLKPEDTAVYYCAASYVRGYDYWGQGTQVTVSS | high polyreactivity |
| HVQHVESGGGLVQAGGSLRLSCADSGNTFSDNAMGLYRQAPGKVRELVAAISTSGGSTYYADSVKGRFTISRDNAKNTVYLQMNSLNPEDTADYYFAAQFTVLWYEYYYWVQGTQVTVSS | high polyreactivity |
| HVQHVESGGGLVQAGGSLRVSCAASGSIFYTNVMGWYRQAPGKERELVARIDSGGSTNYADSVKGRFTISRDNAKNTVYLQMYSLKPEDTAVYYCAADWYIYDYWGQGTQVTVSS | low polyreactivity |
| HVQLEESGGGLVQAGGSLRLSCAASGITFYKYVMGSYRQAPGKERELVAAITYSGGSRYYADSVKGRFTISRDNAKNTVYLPMNSLKPEDSAVYYWNAYYYWYFPYTYDYWGQGTQVTVSS | high polyreactivity |
| HVQLLESGGGLVQAGGSLRLSCAASGFTFRSYAMGWYRQAPGKERELVAAISGSGGSTYYADSVKGRFTISRDNAKNTVYLQMNSLKPEVTAVYYCAARRSKNSALGGRVSIGDYWGQGTQVTVSS | high polyreactivity |
| HVQLLESGGGLVQAGGSLRLSCAASGITFQFYPKGWYRQAPGKERELVAAISYSGGSTYYADSVKGRFTISRDNAKNTVYLQMNSLKAADTAVYYCAAVSYSSRGNYWGQGTQVTVSS | high polyreactivity |
| HVQLQERGGGLVQAGGSLRLSCAASGSIFQATYMGWYRQAPGKEREFVASITYGSITNYADSVKGRFTIGRDNAKDTLYLQMNSLKPEDTAVYYCAVDRHYIPAFHYWGQCTQVTVSS | low polyreactivity |
| HVQLQESGGGLVQACGSLRLSCAASGTIFKVVDMGLYRQSPAKEREFVATIGEGGNTYYADSVKGRFTISRDNAKNTVYLQMNSLKPEDTAVYFYEVVMGTSYRYTYWGQGTHVTVSS | low polyreactivity |
